# Test results taken from doi:10.1101/2024.07.21.604514.
# What was measured:
# [1] = molecular target: human GLP-1R-LgBiT-2MBP (glucagon-like peptide-1 receptor, construct for structure determination) (human) (UniProt P43220)
# [2] = molecular target: human GLP-1R-LgBiT-2MBP (glucagon-like peptide-1 receptor, construct for structure determination) (human) (UniProt P43220); remark: listed apart in the source
# Sequence of UniProt P43220 (P43220 24-463): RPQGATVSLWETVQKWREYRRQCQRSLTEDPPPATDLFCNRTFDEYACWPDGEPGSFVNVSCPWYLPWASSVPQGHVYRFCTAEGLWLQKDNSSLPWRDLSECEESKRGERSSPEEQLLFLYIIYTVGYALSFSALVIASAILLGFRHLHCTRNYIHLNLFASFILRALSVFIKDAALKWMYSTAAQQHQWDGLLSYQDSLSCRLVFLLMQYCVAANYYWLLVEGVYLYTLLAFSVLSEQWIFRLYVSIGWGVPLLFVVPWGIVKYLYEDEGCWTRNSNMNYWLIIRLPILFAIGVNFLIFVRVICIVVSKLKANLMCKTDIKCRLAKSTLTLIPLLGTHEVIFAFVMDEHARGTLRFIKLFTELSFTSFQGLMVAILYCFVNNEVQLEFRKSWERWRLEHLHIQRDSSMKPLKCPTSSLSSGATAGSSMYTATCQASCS
substance,measurement,setting,value
GLP-1(9-36)NH2 (peptide),"EC50 of cAMP accumulation, WT GLP-1R, with 50 nM LSN3318839 (full agonist)",[1],23 nM
same,"EC50 of cAMP accumulation, WT GLP-1R, with 5 μM LSN3318839",[2],0.41 nM
